Positions count from the first letter of the chain named. Each block holds one binder with its values, some of them ahead of it.
Legend:
[1] = target: CAIX coated on a CM5 chip (Example 2) (human, UniProt Q16790 38-414); experiment: SPR (BIAcore X100), CAIX coated CM5 chip, scFv injected as serial dilutions
Description: Affinity measurements were performed by surface plasmon resonance using BIAcore X100 instrument using a CAIX coated CM5 chip. The XE114 antibody without glycosylation motif in scFv format was injected as serial-dilutions, in a concentration range from […] to 15.7 nM. Regeneration of the chip was performed by HCl 10 mM.
The BIAcore analysis confirmed that the XE114 antibody without glycosylation motif in scFv format was capable of binding to CAIX.

[2] = target: recombinant His-tagged CAIX (amino acids 120-397 of the full-length protein; SEQ ID NO: 15) (human, UniProt Q16790 120-397); experiment: SPR (Biacore 3000), His-tagged CAIX on CM5 chip, monomeric scFv injected at 660 nM
Description: Affinity measurements were performed on a Biacore 3000 instrument. 2100 RU recombinant His-tagged CAIX (SEQ ID NO: 15) were immobilized onto a CM5 chip. Peaks representing the monomeric fractions of the scFv were collected by size-exclusion chromatography on a Superdex 75 HR 10/30 column. The monomeric fraction was injected at a flow rate of 10 μl min⁻¹ over the antigen-coated chip at […] different concentrations, 660 nM, 160 nM and 80 nM. All kinetic data were evaluated using the BIAevaluation 4.1 software.

[3] = target: carbonic anhydrase IX (CAIX) as expressed on SKRC52 human renal cell carcinoma cells, SKRC52 tumour sections … (human, UniProt Q16790 38-459); experiment: immunofluorescence on frozen human stomach sections, FITC-labelled hIgG1 at 2 ug/ml
Description: Frozen sections of healthy human stomach tissue were stained as follows. Briefly, FITC-labeled antibody XE114 in human IgG1 (hIgG1) format was added at a final concentration of 2 μg/ml to acetone-fixed sections.
Counterstaining for cell nuclei was performed with DAPI. Tissue sections were mounted with fluorescent mounting medium and analysed using an Axioskop2 microscope with a 10× objective.

Kd [1]: 2.71 nM
koff [1]: 0.000305 s⁻¹
B1: XE114 antibody without glycosylation motif in scFv format (scFv)
scFv: EVQLLESGGGLVQPGGSLRLSCAASGFTFSSYAMSWVRQAPGKGLEWVSAIDGSGGSTYYADSVKGRFTISRDNSKNTLYLQMNSLRAEDTAVYYCVKGPPVFDYWGQGTLVTVSSGGGGSGGGGSGGGGSSELTQDPAVSVALGQTVRITCQGDSLRSYYASWYQQKPGQAPVLVIYGKNNRPSGIPDRFSGSSSGNTASLTITGAQAEDEADYYCQSSKWSWDPVVFGGGTKLTVLG
notes: Expressed in CHO-S cells; also called XE114 w/o glycosylation motif

Kd [2]: 15 nM
B2: anti-CAIX XE114 scFv antibody (with the glycosylation motif) (scFv)
scFv: B1 scFv with Q218N
notes: also called scFv XE114; XE114 single chain Fv

binding result [3]: binds
B3: XE114 antibody (with the glycosylation motif) in human IgG1 (hIgG1) format (antibody, V domains shown)
VH: EVQLLESGGGLVQPGGSLRLSCAASGFTFSSYAMSWVRQAPGKGLEWVSAIDGSGGSTYYADSVKGRFTISRDNSKNTLYLQMNSLRAEDTAVYYCVKGPPVFDYWGQGTLVTVSS
VL: SSELTQDPAVSVALGQTVRITCQGDSLRSYYASWYQQKPGQAPVLVIYGKNNRPSGIPDRFSGSSSGNTASLTITGAQAEDEADYYCNSSKWSWDPVVFGGGTKLTVLG
modifications: FITC-labelled (site and chain not stated)
notes: also called FITC-labeled antibody XE114; XE114 in IgG format

From US20210054095A1 (PHILOGEN S P A, published 2021)
